The text below walks through data of patent CN112430265A (INST FOR VIRAL DISEASE CONTROL AND PREVENTION CHINESE …, dated 2021).

The assay concerns the target 新型冠状病毒S1蛋白 (纯化) (SARS-CoV-2, UniProt P0DTC2 14-685).

B1: 人源抗新冠病毒中和性抗体nCoV-61 全抗体IgG (antibody, V domains shown)
VH: EVQLVESGGGLVQPGGSLRLSCEASEIIVNRNYMNWVRQAPGKGLEWVSIIYPGGSTFYADSVKGRFTISRDNSKNTMYLQMNSLRAEDTAVYYCARSYGDFYVDFWGQGTLVTVSS
VL: QSVLTQPPSVSAAPGQKVTISCSGSSSNIGNNYVSWYQQLPGTAPKLLIYDNNKRPSGIPDRFSGSKSGTSATLGITGLQTGDEADYYCGTWDSSLSAWVFGGGTKLTVLG
Consider B1, for which the Kd (as a rule, the concentration at which binding is half-saturated) was 3.33 pM. This lies in the picomolar range.
